Measured values taken from patent US20100306864A1 (OTSUKA CHEMICAL, published 2010).

T1: CD20 (on Daudi cells) (human, UniProt P11836 1-297)
T1 construct: whole, on cells; The target is the CD20 naturally present on Daudi cells; also called antigen
T1 sequence (looked up): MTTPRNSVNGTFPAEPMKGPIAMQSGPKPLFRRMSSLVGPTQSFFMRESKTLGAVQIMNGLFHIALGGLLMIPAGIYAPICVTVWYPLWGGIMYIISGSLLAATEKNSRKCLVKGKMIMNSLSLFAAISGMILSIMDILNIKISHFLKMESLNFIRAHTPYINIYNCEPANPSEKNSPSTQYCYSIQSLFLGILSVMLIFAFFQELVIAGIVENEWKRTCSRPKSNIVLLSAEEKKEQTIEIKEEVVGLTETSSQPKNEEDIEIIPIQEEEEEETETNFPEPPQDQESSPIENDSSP

B1: anti-CD20 chimera antibody (wild type) (antibody, human IgG1, kappa)
heavy: not shown
light: QIVLSQSPAILSASPGEKVTMTCRASSSVSYMHWYQQKPGSSPKPWIYAPSNLASGVPARFSGSGSGTSYSLTISRVEAEDAANYYCQQWSFNPPTFGAGTKLELKTVAAPSVFIFPPSDEQLKSGTASVVCLLNNFYPREAKVQWKVDNALQSGNSQESVTEQDSKDSTYSLSSTLTLSKADYEKHKVYACEVTHQGLSSPVTKSFNRGEC
notes: Mouse anti-CD20 variable regions joined to human IgG1 H chain and human L chain constant regions; also called wild type antibody; wild type anti-CD20 chimera antibody; copies: 2 + 2
B2: anti-CD20 chimera antibody H chain constant region amino acid mutant Tyr296Cys (antibody, human IgG1, kappa)
heavy: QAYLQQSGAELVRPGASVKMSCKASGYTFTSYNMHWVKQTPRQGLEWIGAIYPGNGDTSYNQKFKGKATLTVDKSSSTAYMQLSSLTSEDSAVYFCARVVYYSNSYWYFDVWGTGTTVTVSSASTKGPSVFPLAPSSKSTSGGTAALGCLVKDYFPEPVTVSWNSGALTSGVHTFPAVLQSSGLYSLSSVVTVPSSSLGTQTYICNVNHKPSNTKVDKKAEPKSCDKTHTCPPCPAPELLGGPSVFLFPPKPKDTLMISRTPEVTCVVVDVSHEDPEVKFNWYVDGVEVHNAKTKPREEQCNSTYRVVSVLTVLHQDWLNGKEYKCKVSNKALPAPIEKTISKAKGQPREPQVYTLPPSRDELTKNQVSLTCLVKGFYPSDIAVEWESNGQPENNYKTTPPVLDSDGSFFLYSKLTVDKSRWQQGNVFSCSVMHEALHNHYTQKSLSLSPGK
light: B1 light
notes: H chain entry already carries Tyr296Cys (Kabat EU index); also called Tyr296Cys mutant; Tyr296Cys-modified antibody; copies: 2 + 2
B3: anti-CD20 chimera antibody H chain constant region amino acid mutant Tyr300Cys (antibody, human IgG1, kappa)
heavy: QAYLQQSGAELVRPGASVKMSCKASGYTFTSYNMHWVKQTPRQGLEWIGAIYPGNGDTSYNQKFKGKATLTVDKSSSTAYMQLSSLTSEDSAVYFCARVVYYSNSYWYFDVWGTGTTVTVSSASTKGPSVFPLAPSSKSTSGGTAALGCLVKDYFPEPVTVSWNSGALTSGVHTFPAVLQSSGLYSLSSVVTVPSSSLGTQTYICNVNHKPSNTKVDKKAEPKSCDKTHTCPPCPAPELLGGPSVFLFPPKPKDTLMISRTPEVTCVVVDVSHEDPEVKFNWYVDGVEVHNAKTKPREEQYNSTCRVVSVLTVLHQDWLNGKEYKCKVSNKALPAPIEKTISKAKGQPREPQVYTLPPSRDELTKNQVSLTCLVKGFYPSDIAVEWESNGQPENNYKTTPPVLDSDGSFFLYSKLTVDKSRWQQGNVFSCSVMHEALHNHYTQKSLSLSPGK
light: B1 light
notes: H chain entry already carries Tyr300Cys (Kabat EU index); also called Tyr300Cys-modified antibody
B4: anti-CD20 chimera antibody H chain constant region amino acid mutant Glu293Cys (antibody, human IgG1, kappa)
heavy: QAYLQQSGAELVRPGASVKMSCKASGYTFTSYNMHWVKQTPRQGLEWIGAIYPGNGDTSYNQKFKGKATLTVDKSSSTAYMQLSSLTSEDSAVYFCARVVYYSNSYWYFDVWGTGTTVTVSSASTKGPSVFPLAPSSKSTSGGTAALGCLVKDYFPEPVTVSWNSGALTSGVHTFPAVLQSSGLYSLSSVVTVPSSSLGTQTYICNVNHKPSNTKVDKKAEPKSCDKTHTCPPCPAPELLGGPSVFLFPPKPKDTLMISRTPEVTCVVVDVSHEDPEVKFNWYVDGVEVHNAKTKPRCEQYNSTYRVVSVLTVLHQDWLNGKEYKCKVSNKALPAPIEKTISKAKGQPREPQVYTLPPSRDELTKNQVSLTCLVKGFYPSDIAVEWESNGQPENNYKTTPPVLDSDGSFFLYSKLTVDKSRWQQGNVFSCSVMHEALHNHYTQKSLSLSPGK
light: B1 light
notes: H chain entry already carries Glu293Cys (Kabat EU index); also called Glu293Cys-modified antibody
B5: anti-CD20 chimera antibody H chain constant region amino acid mutant Glu294Cys (antibody, human IgG1, kappa)
heavy: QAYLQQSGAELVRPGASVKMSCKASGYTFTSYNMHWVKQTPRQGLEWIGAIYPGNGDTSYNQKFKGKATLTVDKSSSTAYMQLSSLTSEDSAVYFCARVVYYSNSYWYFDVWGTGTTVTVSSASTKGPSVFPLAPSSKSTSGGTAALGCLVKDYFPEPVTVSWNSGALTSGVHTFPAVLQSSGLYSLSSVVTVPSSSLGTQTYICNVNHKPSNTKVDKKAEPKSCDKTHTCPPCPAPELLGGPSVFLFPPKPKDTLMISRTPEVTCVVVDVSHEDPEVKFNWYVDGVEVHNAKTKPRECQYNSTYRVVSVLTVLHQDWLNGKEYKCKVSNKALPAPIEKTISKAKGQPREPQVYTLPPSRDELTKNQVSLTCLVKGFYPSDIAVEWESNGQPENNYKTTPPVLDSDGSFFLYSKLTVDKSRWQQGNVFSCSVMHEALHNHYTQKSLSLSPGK
light: B1 light
notes: H chain entry already carries Glu294Cys (Kabat EU index); also called Glu294Cys-modified antibody
B6: anti-CD20 chimera antibody H chain constant region amino acid mutant Ser298Cys (antibody, human IgG1, kappa)
heavy: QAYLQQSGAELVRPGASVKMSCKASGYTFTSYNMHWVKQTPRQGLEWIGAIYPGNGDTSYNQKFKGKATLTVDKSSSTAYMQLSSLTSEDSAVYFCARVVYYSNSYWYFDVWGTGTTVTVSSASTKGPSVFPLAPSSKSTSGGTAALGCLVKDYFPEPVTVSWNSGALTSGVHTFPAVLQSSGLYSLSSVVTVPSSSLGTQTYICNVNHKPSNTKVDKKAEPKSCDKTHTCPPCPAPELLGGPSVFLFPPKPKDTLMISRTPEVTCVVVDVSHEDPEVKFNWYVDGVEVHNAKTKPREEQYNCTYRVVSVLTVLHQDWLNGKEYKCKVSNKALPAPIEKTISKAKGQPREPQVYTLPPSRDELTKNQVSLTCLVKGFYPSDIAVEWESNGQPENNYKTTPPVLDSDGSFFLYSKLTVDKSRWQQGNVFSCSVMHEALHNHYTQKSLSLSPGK
light: B1 light
notes: H chain entry already carries Ser298Cys (Kabat EU index); also called Ser298Cys mutant; Ser298Cys-modified antibody; copies: 2 + 2

What was measured:
[1] = molecular target: T1, CD20 (on Daudi cells); experiment: cell ELISA on Daudi cells, HRP anti-human IgG, OD450
Method: Daudi cells (ATCC catalog No. CCL-213) were dispensed into a 96 well plate at a density of 6×10⁴ cells/well, each of the antibody mutants (Glu293Cys, Glu294Cys, Tyr296Cys, Ser298Cys, or Tyr300Cys) obtained in Example 1 or wild type antibody was added thereto, and a reaction was carried out at 4° C. for 1 hour. Following this, washing was carried out with 3 mM EDTA-0.5% BSA-PBS(−) (washing buffer). Subsequently, 50 μL/well of an HRP-labeled anti-human IgG antibody (Zymed) diluted 500 times with the washing buffer was added, and a reaction was carried out at 4° C. for 1 hour. Cells after the reaction were washed with the washing buffer, 100 μL/well of TMB substrate (KPL) was added thereto so as to cause coloration, the reaction was stopped by adding 100 μL/well of 1 M HCl (Wako), and the OD value at 450 nm was measured using a plate reader (VersaMax, Molecular Devices).

[2] = molecular target: T2, CD16 (NK cell Fcy receptor III), expressed on CHO-K1 cells (human, UniProt P08637 17-254); experiment: flow cytometry on CD16-expressing CHO-K1 cells; biotin anti-human IgG kappa L chain antibody and PE-streptavidin
T2 construct: whole, on cells; also called CD16-expressing CHO-K1 cells
T2 sequence (P08637 17-254): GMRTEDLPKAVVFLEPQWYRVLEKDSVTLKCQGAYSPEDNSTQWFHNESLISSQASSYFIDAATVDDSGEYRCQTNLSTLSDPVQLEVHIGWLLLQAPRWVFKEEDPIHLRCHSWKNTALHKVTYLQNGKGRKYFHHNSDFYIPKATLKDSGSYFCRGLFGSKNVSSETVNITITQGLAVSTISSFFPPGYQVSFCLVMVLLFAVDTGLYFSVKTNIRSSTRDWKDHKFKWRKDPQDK
Method: CD16-expressing CHO-K1 cells were taken at 6×10⁴ cells/tube, each of the antibody mutants obtained in Example (Tyr296Cys or Ser298Cys) or wild type antibody was added thereto to give a total amount of 50 μL/tube, and a reaction was carried out at 4° C. for 1 hour. Following this, washing was carried out with 3 mM EDTA-0.5% BSA-PBS(−) (washing buffer). Subsequently, a biotin-labeled mouse anti-human IgGκ L chain antibody (Vector Lab) diluted 200 times with the washing buffer was added at 100 μL/tube. After a reaction was carried out at 4° C. for 30 min, washing was carried out with 3 mM EDTA-0.5% BSA-PBS(−), PE-labeled streptavidin (BD-Pharmingen) diluted 400 times with the washing buffer was added at 100 μL/tube, and a reaction was carried out at 4° C. for 30 min. After the reaction was completed, washing was carried out twice with 3 mM EDTA-0.5% BSA-PBS(−), and a CD16-binding anti-CD20 antibody was analyzed using a flow cytometer (FACS Caliber, BecktonDickinson).

Binder	binding result [1]	CD16 binding activity relative to wild type (concentrations that gave the same effect) [2]
B1	binds	
B2	binds	~5 times that of the wild type
B3	binds	
B4	binds	
B5	binds	
B6	binds	~10 times that of the wild type
